One block for each binder: values may come before it.
Experiments:
Details in all cases: remark: other sources report otherwise
[1] = biological target: Flag-tagged catalytic domain of PHD2 (181-426) (human), Q9GZT9; assay: non-reducing SDS-PAGE with immunoblot; total cell lysates (1% IGEPAL, 150 mM NaCl, 50 mM Tris-HCl pH 7.9, no reducing agent) in sample buffer without β-ME; cells treated with H2O2 (50-200 uM), T-hydro (1-3 uM), diamide (0.1-1 mM), 10% FBS or expressing H-ras V12
[2] = biological target: Prolyl hydroxylase domain protein 2 (PHD2), endogenous (human (endogenous in U2OS, H2030, A549)), Q9GZT9; assay: as above
[3] = biological target: Wild-type HA-PHD2 purified from HEK293T cells (human), Q9GZT9; assay: non-reducing SDS-PAGE with immunoblot; tagged PHD2 affinity-purified (Flag or HA gel, peptide elution) from H2O2-treated HEK293T cells, run without DTT
[4] = biological target: Flag-tagged PHD2 purified from HEK293T cells (human), Q9GZT9; assay: as above
[5] = biological target: Flag-tagged PHD2 (with an HA-tagged copy of PHD2 in the co-immunoprecipitation) (human), Q9GZT9; assay: non-reducing SDS-PAGE with immunoblot; total cell lysates (1% IGEPAL, 150 mM NaCl, 50 mM Tris-HCl pH 7.9, no reducing agent) in sample buffer without β-ME; cells treated with H2O2 (50-200 uM), T-hydro (1-3 uM), diamide (0.1-1 mM), 10% FBS or expressing H-ras V12

B4: Flag-tagged PHD2 purified from HEK293T cells, Q9GZT9 1-426 (natural protein)
chain: MANDSGGPGGPSPSERDRQYCELCGKMENLLRCSRCRSSFYCCKEHQRQDWKKHKLVCQGSEGALGHGVGPHQHSGPAPPAAVPPPRAGAREPRKAAARRDNASGDAAKGKVKAKPPADPAAAASPCRAAAGGQGSAVAAEAEPGKEEPPARSSLFQEKANLYPPSNTPGDALSPGGGLRPNGQTKPLPALKLALEYIVPCMNKHGICVVDDFLGKETGQQIGDEVRALHDTGKFTDGQLVSQKSDSSKDIRGDKITWIEGKEPGCETIGLLMSSMDDLIRHCNGKLGSYKINGRTKAMVACYPGNGTGYVRHVDNPNGDGRCVTCIYYLNKDWDAKVSGGILRIFPEGKAQFADIEPKFDRLLFFWSDRRNPHEVQPAYATRYAITVWYFDADERARAKVKYLTGEKGVRVELNKPSDSVGKDVF
stoichiometry N [4]: 2

B5: Flag-tagged PHD2 (with an HA-tagged copy of PHD2 in the co-immunoprecipitation), Q9GZT9 1-426 (natural protein)
chain: B4 chain
stoichiometry N [5]: 2

Now from value to binder:

stoichiometry N [1]: 2
B1: Flag-tagged catalytic domain of PHD2 (181-426), Q9GZT9 181-426 (domain or fragment)
chain: PNGQTKPLPALKLALEYIVPCMNKHGICVVDDFLGKETGQQIGDEVRALHDTGKFTDGQLVSQKSDSSKDIRGDKITWIEGKEPGCETIGLLMSSMDDLIRHCNGKLGSYKINGRTKAMVACYPGNGTGYVRHVDNPNGDGRCVTCIYYLNKDWDAKVSGGILRIFPEGKAQFADIEPKFDRLLFFWSDRRNPHEVQPAYATRYAITVWYFDADERARAKVKYLTGEKGVRVELNKPSDSVGKDVF

stoichiometry N [2]: 2
B2: Prolyl hydroxylase domain protein 2 (PHD2), endogenous, Q9GZT9 1-426 (natural protein)
chain: B4 chain

stoichiometry N [3]: 2
B3: Wild-type HA-PHD2 purified from HEK293T cells, Q9GZT9 1-426 (natural protein)
chain: B4 chain

— article PMC4703963
